Reference: publication PMC5351860, “Novel fimbrilin PGN_1808 in Porphyromonas gingivalis” (PLoS ONE, 2017)

Molecular target: the molecule itself
Assay: SDS-PAGE after partial denaturation; fractionated fimbriae in loading buffer with 1% SDS and 0.5 M 2-mercaptoethanol heated at 37, 60 and/or 80°C for 10 min; CBB staining and western blotting

B1: Mfa1 (Mfa1 fimbriae purified from the fimA gene-deletion mutant of P. gingivalis ATCC 33277) (natural protein)
chain: AGDGQDQANPDYHYVGEWAGKDKIEKVSIYMVPQGGPGLVESAEDLDFGTYYENPTIDPATHNAILKPKKGIKVNSAVGKTVKVYVVLNDIAGKAKALLANVNAADFDAKFKEIIELSTQAQALGTVADGPNPATAAGKIAKKNGTTDETIMMTCLQPSDALTIEAAVSEANAIAGIKNQAKVTVERSVARAMVSTKAQSYEIKATTQIGEIAAGSVLATITDIRWVVAQGERRQYLSKKRGTVPENTWVTPGSGFVPTSSTFHTNATEYYDYAGLWEDHNTNEAVISGTQVPTLADYQLQDVTGELANALSGKFLLPNTHKSGANAASSDYKRGNTAYVLVRAKFTPKKEAFIDRGKTYSDNTAVPEYVAGEDFFVGENGQFYVSMKSVTDPKVGGVAGMKAHKYVKGKVLYYAWLNPSTTSPDSWWNSPVVRNNIYHIHIKSIKKLGFNWNPLVPDPDPSNPENPNNPDPNPDEPGTPVPTDPENPLPDQDTFMSVEVTVLPWKVHSYEVDL
notes: source: fimA gene-deletion mutant derived from P. gingivalis ATCC 33277; fractionated by ammonium sulfate precipitation and DEAE Sepharose chromatography
- binding result: binds
